{"source": "the RNAGym collection of RNA variant scans (doi:10.1093/molbev/msab373)", "parents": {"B1": {"name": "Azoarcus group I ribozyme (parent)", "chain": "GUGCCUUGCGCCGGGAAACCACGCAAGGGAUGGUGUCAAAUUCGGCGAAACCUAAGCGCCCGCCCGGGCGUAUGGCAACGCCGAGCCAAGCUUCGGCGCCUGCGCCGAUGAAGGUGUAGAGACUAGACGGCACCCACCUAAGGCAAACGCUAUGGUGAAGGCAUAGUCCAGGGAGUGGCGAAAGUCACACAAACCGG"}}}
{"variants_of": "B1", "test": "reverse-splicing fitness (ratio to wild type); higher = more active; in vitro selection; Mg2+ level not given", "how_it_was_run": "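An in vitro group I ribozyme library with randomized positions was T7-transcribed and gel-purified. In triplicate, 10 pmol RNA in EPPS pH 7.5 was reacted with 50 pmoles of a 30-nt RNA substrate for 1 h at 37 °C across several added MgCl2 levels (1–48 mM), then stopped with EDTA. Products were reverse transcribed from a substrate-complementary primer, PCR-amplified and sequenced (HiSeq 4000). Fitness is a variant's read proportion after selection over that before, normalised to wild type.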"}
{"variant": "A120C A145U C150G U176G", "reverse-splicing fitness": 0.0206}
{"variant": "A120C A145U C150U", "reverse-splicing fitness": 0.744}
{"variant": "A120C A145U C150U C169A", "reverse-splicing fitness": 0.0252}
{"variant": "A120C A145U C150U C169A U176A", "reverse-splicing fitness": 0.0137}
{"variant": "A120C A145U C150U C169A U176C", "reverse-splicing fitness": 0.0111}
{"variant": "A120C A145U C150U C169A U176G", "reverse-splicing fitness": 0.00474}
{"variant": "A120C A145U C150U C169G", "reverse-splicing fitness": 0.0196}
{"variant": "A120C A145U C150U C169G U176A", "reverse-splicing fitness": 0.0111}
{"variant": "A120C A145U C150U C169G U176C", "reverse-splicing fitness": 0.0117}
{"variant": "A120C A145U C150U C169G U176G", "reverse-splicing fitness": 0.00463}
{"variant": "A120C A145U C150U C169U", "reverse-splicing fitness": 0.329}
{"variant": "A120C A145U C150U C169U U176A", "reverse-splicing fitness": 0.131}
{"variant": "A120C A145U C150U C169U U176C", "reverse-splicing fitness": 0.16}
{"variant": "A120C A145U C150U C169U U176G", "reverse-splicing fitness": 0.0113}
{"variant": "A120C A145U C150U U176A", "reverse-splicing fitness": 0.652}
{"variant": "A120C A145U C150U U176C", "reverse-splicing fitness": 0.562}
{"variant": "A120C A145U C150U U176G", "reverse-splicing fitness": 0.2}
{"variant": "A120C A145U C169A", "reverse-splicing fitness": 0.032}
{"variant": "A120C A145U C169A U176A", "reverse-splicing fitness": 0.01}
{"variant": "A120C A145U C169A U176C", "reverse-splicing fitness": 0.0127}
{"variant": "A120C A145U C169A U176G", "reverse-splicing fitness": 0.00466}
{"variant": "A120C A145U C169G", "reverse-splicing fitness": 0.0257}
{"variant": "A120C A145U C169G U176A", "reverse-splicing fitness": 0.00826}
{"variant": "A120C A145U C169G U176C", "reverse-splicing fitness": 0.0112}
{"variant": "A120C A145U C169G U176G", "reverse-splicing fitness": 0.0038}
{"variant": "A120C A145U C169U", "reverse-splicing fitness": 0.441}
{"variant": "A120C A145U C169U U176A", "reverse-splicing fitness": 0.143}
{"variant": "A120C A145U C169U U176C", "reverse-splicing fitness": 0.187}
{"variant": "A120C A145U C169U U176G", "reverse-splicing fitness": 0.0184}
{"variant": "A120C A145U U176A", "reverse-splicing fitness": 0.726}
{"variant": "A120C A145U U176C", "reverse-splicing fitness": 0.7}
{"variant": "A120C A145U U176G", "reverse-splicing fitness": 0.318}
{"variant": "A120C C150A", "reverse-splicing fitness": 0.241}
{"variant": "A120C C150A C169A", "reverse-splicing fitness": 0.0141}
{"variant": "A120C C150A C169A U176A", "reverse-splicing fitness": 0.0193}
{"variant": "A120C C150A C169A U176C", "reverse-splicing fitness": 0.011}
{"variant": "A120C C150A C169A U176G", "reverse-splicing fitness": 0.00451}
{"variant": "A120C C150A C169G", "reverse-splicing fitness": 0.00864}
{"variant": "A120C C150A C169G U176A", "reverse-splicing fitness": 0.0161}
{"variant": "A120C C150A C169G U176C", "reverse-splicing fitness": 0.0156}
{"variant": "A120C C150A C169G U176G", "reverse-splicing fitness": 0.00418}
{"variant": "A120C C150A C169U", "reverse-splicing fitness": 0.098}
{"variant": "A120C C150A C169U U176A", "reverse-splicing fitness": 0.0533}
{"variant": "A120C C150A C169U U176C", "reverse-splicing fitness": 0.0627}
{"variant": "A120C C150A C169U U176G", "reverse-splicing fitness": 0.00663}
{"variant": "A120C C150A U176A", "reverse-splicing fitness": 0.184}
{"variant": "A120C C150A U176C", "reverse-splicing fitness": 0.195}
{"variant": "A120C C150A U176G", "reverse-splicing fitness": 0.0764}
{"variant": "A120C C150G", "reverse-splicing fitness": 0.187}
{"variant": "A120C C150G C169A", "reverse-splicing fitness": 0.0115}
{"variant": "A120C C150G C169A U176A", "reverse-splicing fitness": 0.0108}
{"variant": "A120C C150G C169A U176C", "reverse-splicing fitness": 0.00991}
{"variant": "A120C C150G C169A U176G", "reverse-splicing fitness": 0.00553}
{"variant": "A120C C150G C169G", "reverse-splicing fitness": 0.00811}
{"variant": "A120C C150G C169G U176A", "reverse-splicing fitness": 0.0074}
{"variant": "A120C C150G C169G U176C", "reverse-splicing fitness": 0.00463}
{"variant": "A120C C150G C169G U176G", "reverse-splicing fitness": 0.0036}
{"variant": "A120C C150G C169U", "reverse-splicing fitness": 0.0809}
{"variant": "A120C C150G C169U U176A", "reverse-splicing fitness": 0.0117}
{"variant": "A120C C150G C169U U176C", "reverse-splicing fitness": 0.0388}
{"variant": "A120C C150G C169U U176G", "reverse-splicing fitness": 0.00544}
{"variant": "A120C C150G U176A", "reverse-splicing fitness": 0.0876}
{"variant": "A120C C150G U176C", "reverse-splicing fitness": 0.114}
{"variant": "A120C C150G U176G", "reverse-splicing fitness": 0.0145}
{"variant": "A120C C150U", "reverse-splicing fitness": 0.723}
{"variant": "A120C C150U C169A", "reverse-splicing fitness": 0.0269}
{"variant": "A120C C150U C169A U176A", "reverse-splicing fitness": 0.0206}
{"variant": "A120C C150U C169A U176C", "reverse-splicing fitness": 0.017}
{"variant": "A120C C150U C169A U176G", "reverse-splicing fitness": 0.00428}
{"variant": "A120C C150U C169G", "reverse-splicing fitness": 0.0172}
{"variant": "A120C C150U C169G U176A", "reverse-splicing fitness": 0.0153}
{"variant": "A120C C150U C169G U176C", "reverse-splicing fitness": 0.0142}
{"variant": "A120C C150U C169G U176G", "reverse-splicing fitness": 0.00427}
{"variant": "A120C C150U C169U", "reverse-splicing fitness": 0.345}
{"variant": "A120C C150U C169U U176A", "reverse-splicing fitness": 0.118}
{"variant": "A120C C150U C169U U176C", "reverse-splicing fitness": 0.143}
{"variant": "A120C C150U C169U U176G", "reverse-splicing fitness": 0.0106}
{"variant": "A120C C150U U176A", "reverse-splicing fitness": 0.643}
{"variant": "A120C C150U U176C", "reverse-splicing fitness": 0.596}
{"variant": "A120C C150U U176G", "reverse-splicing fitness": 0.181}
{"variant": "A120C C169A", "reverse-splicing fitness": 0.0364}
{"variant": "A120C C169A U176A", "reverse-splicing fitness": 0.0173}
{"variant": "A120C C169A U176C", "reverse-splicing fitness": 0.0233}
{"variant": "A120C C169A U176G", "reverse-splicing fitness": 0.00454}
